Measured values from PMC9828337.

Tests used:
Assay in all cases: MST
[1] = molecular target: CurKC lyase domain (residues 1–217) (Thermomonospora curvata DSM43183)
[2] = molecular target: AciKC lyase domain (residues 1–219)
[3] = molecular target: CurKC kinase domain (residues 218–489) (Thermomonospora curvata DSM43183)
[4] = molecular target: CurKC lyase-kinase didomain (residues 1–489) (Thermomonospora curvata DSM43183)
[5] = molecular target: CurKC leader recognition domain (LRD, residues 222–309), GB1 tag removed (Thermomonospora curvata DSM43183)
[6] = molecular target: CurKC, class III lanthipeptide synthetase from the biosynthesis of curvopeptin (full-length) (Thermomonospora curvata DSM43183)

For “AciKC kinase domain (residues 220–495) (domain or fragment)”, the Kd [1] was 14.8 µM and the Kd [2] was 43.9 µM.
Work on CurA leader peptide yielded a Kd [3] of 801 µM, a Kd [4] of 84 µM and a Kd [5] of 1.2 mM. For the same substance, the Kd [6] was 5.5 µM.
With “CurKC kinase domain (residues 218–489) (domain or fragment)” the Kd [1] was 170 µM and the Kd [2] was 209 µM.
“CurKC leader recognition domain (LRD, residues 222–309), GB1 tag removed (domain or fragment)” was tested, and the Kd [1] was 139 µM.
